From patent US5951979 come the findings set out here.

For this test, the target named is tyrosine phosphorylated ^32 P-labelled RCM-lysozyme (Gallus gallus (Chicken)) (UniProt P00698).

For the substance “full length PTP-PEST D199A (from UniProt Q05209) (enzyme)”, the specific activity with tyrosine phosphorylated RCM-Lysozyme as substrate (fold lower than the wild type enzyme) came out at 10000.
